Assay results from the supplement of paper PMC9112550, “Optimization of the antimicrobial peptide Bac7 by deep mutational scanning” (BMC Biology, 2022).

System: Escherichia coli TOP10
Experiment: shrunken log2 fold change of peptide-encoding DNA abundance (4.5 h post-induction vs induction); higher = less antimicrobial activity (less host growth inhibition)
Details: time post-induction: 4.5 h; library: site-saturation at positions 5, 18, 19, 20
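Also: peptides expressed intracellularly from a pBAD plasmid library in pooled LB shake-flask culture, induced with 0.3% L-arabinose, DNA abundance read by NGS, three biological replicates, DESeq2 with apeglm shrinkage.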

Sequence	shrunken log2 fold change
RRIRFRPPRLPRPRPRPPPNPRP	1.33
RRIRIRPPRLPRPRPRPYMKPRP	-0.495
RRIRGRPPRLPRPRPRPVPHPRP	-0.0133
RRIRWRPPRLPRPRPRPGEMPRP	0.0495
RRIRMRPPRLPRPRPRPEWEPRP	-0.00306
RRIRSRPPRLPRPRPRPHLDPRP	-0.156
RRIRLRPPRLPRPRPRPDYHPRP	-0.576
RRIRNRPPRLPRPRPRPDGWPRP	0.235
RRIRMRPPRLPRPRPRPIFRPRP	0.185
RRIRYRPPRLPRPRPRPEDVPRP	-0.00968
RRIRPRPPRLPRPRPRPPGFPRP	0.847
RRIRGRPPRLPRPRPRPTKWPRP	0.262
RRIRIRPPRLPRPRPRPQMSPRP	-0.0696
RRIRTRPPRLPRPRPRPWVWPRP	0.166
RRIRGRPPRLPRPRPRPLTPPRP	1.43
RRIRNRPPRLPRPRPRPDVLPRP	-0.0481
RRIRERPPRLPRPRPRPSPAPRP	-0.0943
RRIRVRPPRLPRPRPRPHTDPRP	-0.141
RRIRGRPPRLPRPRPRPCLLPRP	0.164
RRIRYRPPRLPRPRPRPRSIPRP	-0.276
RRIRSRPPRLPRPRPRPCQDPRP	-0.0622
RRIRDRPPRLPRPRPRPAWHPRP	0.2
RRIRERPPRLPRPRPRPCWFPRP	-0.0254

Sequence	shrunken log2 fold change
RRIRDRPPRLPRPRPRPKQYPRP	-0.839
RRIRWRPPRLPRPRPRPTTWPRP	0.297
RRIRNRPPRLPRPRPRPDHQPRP	0.113
RRIRVRPPRLPRPRPRPQWTPRP	-0.17
RRIRIRPPRLPRPRPRPSKPPRP	-0.189
RRIRMRPPRLPRPRPRPCAAPRP	2.26
RRIRQRPPRLPRPRPRPTIFPRP	-0.0347
RRIRSRPPRLPRPRPRPKKKPRP	0.195
RRIRKRPPRLPRPRPRPRRIPRP	0.339
RRIRERPPRLPRPRPRPFGWPRP	0.213
RRIRFRPPRLPRPRPRPTCLPRP	-0.249
RRIRQRPPRLPRPRPRPMFWPRP	0.0915
RRIRNRPPRLPRPRPRPAEPPRP	-0.00965
RRIRFRPPRLPRPRPRPQDEPRP	-0.0187
RRIRRRPPRLPRPRPRPMNNPRP	-0.137
RRIRIRPPRLPRPRPRPSWIPRP	-0.411
RRIRHRPPRLPRPRPRPRWRPRP	0.355
RRIRLRPPRLPRPRPRPANFPRP	0.0302
RRIRARPPRLPRPRPRPDCKPRP	-0.129
RRIRHRPPRLPRPRPRPNNEPRP	-0.724
RRIRFRPPRLPRPRPRPTRPPRP	0.776
RRIRMRPPRLPRPRPRPFNTPRP	-0.0396
RRIRTRPPRLPRPRPRPSPKPRP	2.46

Sequence	shrunken log2 fold change
RRIRLRPPRLPRPRPRPMKGPRP	0.0527
RRIRFRPPRLPRPRPRPGFNPRP	-0.22
RRIRQRPPRLPRPRPRPACDPRP	0.0239
RRIRYRPPRLPRPRPRPYKKPRP	-0.00195
RRIRKRPPRLPRPRPRPRTCPRP	-0.202
RRIRARPPRLPRPRPRPTIAPRP	0.687
RRIRCRPPRLPRPRPRPNCVPRP	-0.00701
RRIRERPPRLPRPRPRPLTVPRP	-0.0383
RRIRSRPPRLPRPRPRPMYHPRP	-0.762
RRIRDRPPRLPRPRPRPHSWPRP	0.05
RRIRDRPPRLPRPRPRPFWCPRP	0.136
RRIRSRPPRLPRPRPRPVYTPRP	-0.105
RRIRQRPPRLPRPRPRPQWYPRP	-0.0123
RRIRNRPPRLPRPRPRPNSEPRP	-0.258
RRIRMRPPRLPRPRPRPHDLPRP	-0.0136
RRIRCRPPRLPRPRPRPPLVPRP	0.584
RRIRVRPPRLPRPRPRPDRPPRP	-0.109
RRIRNRPPRLPRPRPRPMQMPRP	0.0963
RRIRNRPPRLPRPRPRPFLGPRP	-0.00194
RRIRIRPPRLPRPRPRPEEPPRP	-0.0444
RRIRQRPPRLPRPRPRPCMWPRP	-0.148
RRIRYRPPRLPRPRPRPNPHPRP	-0.639
RRIRFRPPRLPRPRPRPQFMPRP	-1.06

Sequence	shrunken log2 fold change
RRIRNRPPRLPRPRPRPRSTPRP	-0.0419
RRIRQRPPRLPRPRPRPKLGPRP	0.00556
RRIRRRPPRLPRPRPRPWMRPRP	0.172
RRIRLRPPRLPRPRPRPRITPRP	-0.027
RRIRPRPPRLPRPRPRPQHIPRP	-0.648
RRIRERPPRLPRPRPRPQEQPRP	-0.0202
RRIRGRPPRLPRPRPRPDWYPRP	0.134
RRIRMRPPRLPRPRPRPKHLPRP	0.142
RRIRRRPPRLPRPRPRPLDIPRP	-0.121
RRIRGRPPRLPRPRPRPYQTPRP	0.0825
RRIRFRPPRLPRPRPRPWLLPRP	-0.343
RRIRTRPPRLPRPRPRPMNYPRP	-0.949
RRIRLRPPRLPRPRPRPQRNPRP	-0.789
RRIRPRPPRLPRPRPRPKQEPRP	0.138
RRIRLRPPRLPRPRPRPIYGPRP	0.0275
RRIRLRPPRLPRPRPRPLSEPRP	0.0386
RRIRARPPRLPRPRPRPHPLPRP	-0.0796
RRIRQRPPRLPRPRPRPLKRPRP	-0.0432
RRIRVRPPRLPRPRPRPYNKPRP	-0.707
RRIRRRPPRLPRPRPRPSRAPRP	0.369
RRIRQRPPRLPRPRPRPHNDPRP	-0.421
RRIRARPPRLPRPRPRPFHGPRP	0.0917
